From patent US20220306765A1 (SUZHOU TRANSCENTA THERAPEUTICS, published 2022)
Changes are numbered by the printed parent chain. Numbers in names are those of the source.

Tests used:
[1] = molecular target: human CLDN18.2 (human); assay: cell-based or functional assay
[2] = molecular target: T1, human CLDN18.1 (human, UniProt P56856 1-261); assay: flow cytometry on HEK293-CLDN18.1 cells, one antibody concentration
T1 construct: on HEK293-CLDN18.1 cells; also called Claudin-18 splice variant 1; NP_057453.1

[3] = molecular target: T2, human CLDN18.2 (human); assay: FACS, HEK293-CLDN18.2 cells
T2 construct: also called hCLDN18.2; Claudin-18 splice variant 2

[4] = molecular target: human CLDN18.2-mRFP A42S (human); assay: FACS, transfected HEK293, 10 µg/ml antibody;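 note: antibody binding read by flow cytometry with a FITC-labelled anti-human IgG secondary, gated on RFP-positive cells, each mutant signal expressed against wild-type CLDN18.2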
Method: (§1) The transfected HEK293-CLDN18.2 or HEK293-CLDN18.1 cell were resuspended in PBS with 2% BSA at density of 10\hat{ }5/well, 100 μl/well. […] Next, cells were washed 3 times by FACS washing buffer and incubated with 100 μl/well goat anti-hIgG (H+L)-FITC (1:200 dilution) at 4° C. for another 30 min. Finally, cells were washed 3 times by FACS washing buffer and analyzed by Flow Cytometry. To analyze binding to CLDN18.2 transfected cells, the RFP positive cells were used for control gating.

[5] = molecular target: human CLDN18.2-mRFP L69I (human); assay: FACS, transfected HEK293, 10 µg/ml antibody;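 note: antibody binding read by flow cytometry with a FITC-labelled anti-human IgG secondary, gated on RFP-positive cells, each mutant signal expressed against wild-type CLDN18.2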
Method: as §1

[6] = molecular target: T3, human CLDN18.2-mRFP1, wild-type (human); assay: FACS, transfected HEK293, 10 µg/ml antibody;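 note: antibody binding read by flow cytometry with a FITC-labelled anti-human IgG secondary, gated on RFP-positive cells, each mutant signal expressed against wild-type CLDN18.2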
T3 construct: human CLDN18.2 (amino acid 1-261) fused to mRFP1 (amino acid 1-225), transiently expressed in HEK293 cells; also called wild-type human CLDN18.2-mRFP
Method: as §1

[7] = molecular target: human CLDN18.2-mRFP E56Q (human); assay: FACS, transfected HEK293, 10 µg/ml antibody;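 note: antibody binding read by flow cytometry with a FITC-labelled anti-human IgG secondary, gated on RFP-positive cells, each mutant signal expressed against wild-type CLDN18.2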
Method: as §1

[8] = molecular target: human CLDN18.2-mRFP Q29M (human); assay: FACS, transfected HEK293, 10 µg/ml antibody
Method: as §1

[9] = molecular target: human CLDN18.2-mRFP N45Q (human); assay: FACS, transfected HEK293, 10 µg/ml antibody
Method: as §1

[10] = molecular target: human CLDN18.2-mRFP Q47E (human); assay: FACS, transfected HEK293, 10 µg/ml antibody
Method: as §1

[11] = molecular target: human CLDN18.2-mRFP G65P (human); assay: FACS, transfected HEK293, 10 µg/ml antibody
Method: as §1

[12] = molecular target: human CLDN18.2-mRFP N37D (human); assay: FACS, transfected HEK293, 10 µg/ml antibody
Method: as §1

[13] = molecular target: T2, human CLDN18.2; assay: FACS, MKN45-CLDN18.2-high cells
Method: (§2) Log-phase HEK293-CLDN18.2 and NUGC4 cells were re-suspended in PBS. After 3× cell wash by using FACS washing buffer (PBS+2% FBS), 100 μl/well diluted hybridoma Abs with a range from 400 nM to 0.002 nM were added into each well for incubation at 4° C. for 30 min. Again, cells were washed 3 times by using FACS washing buffer and then incubated with 100 μl/well goat anti-mIgG-FITC (1:400 dilution) at 4° C. for another 30 min. After a final 3× wash using FACS washing buffer, cells were analyzed by flow Cytometry.

[14] = molecular target: T2, human CLDN18.2; assay: flow cytometry on MKN45-CLDN18.2-high cells; unit taken from the concentration axis
Method: as §2

[15] = molecular target: T2, human CLDN18.2; assay: flow cytometry on HEK293-CLDN18.2 cells; unit taken from the concentration axis
Method: as §2

[16] = molecular target: T2, human CLDN18.2; assay: FACS, NUGC4 cells
[17] = molecular target: T2, human CLDN18.2; assay: flow cytometry on KATOIII cells; unit taken from the concentration axis; the fitted value lies far above the highest concentration tested (about 30 ug/ml); the curve rises only from about 2 ug/ml on, to Mean FITC-A about 43000
[18] = molecular target: T2, human CLDN18.2; assay: KinExA, NUGC4 cells; binds: Kd on NUGC4 gastric cells (endogenous CLDN18.2), affinity assay, not FACS EC50
[19] = molecular target: T2, human CLDN18.2; assay: flow cytometry on MIA PaCa-2-CLDN18.2 cells (y axis printed as Luminescence); unit taken from the concentration axis
[20] = molecular target: T2, human CLDN18.2; assay: flow cytometry on BxPC-3-CLDN18.2 cells (y axis printed as Luminescence); unit taken from the concentration axis
[21] = molecular target: T2, human CLDN18.2; assay: FACS, HEK293-CLDN18.2 cells; binds: FACS on overexpressing HEK293-CLDN18.2 cells
[22] = molecular target: T2, human CLDN18.2; assay: flow cytometry on MKN45-CLDN18.2-medium cells; unit taken from the concentration axis; the fitted value lies far above the highest concentration tested (about 60 ug/ml); the curve lies on the isotype control up to about 7 ug/ml and reaches Mean FITC about 4200 at about 60 ug/ml
Method: as §2

[23] = molecular target: T2, human CLDN18.2; assay: flow cytometry on SNU-601 cells; unit taken from the concentration axis; the fitted value lies far above the highest concentration tested (about 30 ug/ml); the curve rises only from about 2 ug/ml on, to Mean FITC-A about 35000
[24] = molecular target: T4, Cyno FcγRIII-his (cyno, UniProt Q8SPW2 17-208); assay: ELISA: antibody coated, Cyno FcγRIII-his titrated, anti-His-HRP; the concentration axis is that of the receptor
T4 construct: also called cyno FcγRs
Method: (§3) After blocking and washing, the serial diluted (5 g/ml˜0.02 μg/ml) FcγRs labeled with His-tag were added and incubated for 1 h. Then anti-His-HRP and TMB were added for detection of FcγR binding at OD450 nm.

[25] = molecular target: T5, human FcγRIIIa-V176 (human, UniProt P08637 17-208); assay: cell-based or functional assay
[26] = molecular target: T5, human FcγRIIIa-V176; assay: ELISA: antibody coated at 1 ug/ml, hFcγRIIIA(V176)-his titrated, anti-His-HRP; the concentration is that of the receptor
Method: as §3

[27] = molecular target: T6, FcγRIV-his (Mus musculus (Mouse), UniProt A0A0B4J1G0 21-203); assay: ELISA: antibody coated at 1 ug/ml, Mouse FcγRIV-his titrated, anti-His-HRP; the concentration is that of the receptor
T6 sequence: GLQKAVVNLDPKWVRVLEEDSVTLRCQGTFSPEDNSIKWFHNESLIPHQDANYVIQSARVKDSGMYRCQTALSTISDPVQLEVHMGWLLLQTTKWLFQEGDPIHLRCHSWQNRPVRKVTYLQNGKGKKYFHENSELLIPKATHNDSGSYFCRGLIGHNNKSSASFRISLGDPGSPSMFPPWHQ
Method: as §3

[28] = molecular target: human C1q (human, UniProt P02745 23-245; P02746 28-253; P02747 29-245); assay: ELISA: antibody immobilised, human C1q titrated, anti-C1q-HRP; the concentration axis is that of C1q
Method: C1q binding assay was taken following method. Two antibodies were immobilized on the plate. […] Then anti-C1q-HRP and TMB were added for detection at OD450 nm.

[29] = molecular target: T7, mouse FcγRI-his (mouse, UniProt P26151 25-297); assay: ELISA: antibody coated at 1 ug/ml, Mouse FcγRI-his titrated, anti-His-HRP; the concentration axis is that of the receptor
T7 sequence (looked up): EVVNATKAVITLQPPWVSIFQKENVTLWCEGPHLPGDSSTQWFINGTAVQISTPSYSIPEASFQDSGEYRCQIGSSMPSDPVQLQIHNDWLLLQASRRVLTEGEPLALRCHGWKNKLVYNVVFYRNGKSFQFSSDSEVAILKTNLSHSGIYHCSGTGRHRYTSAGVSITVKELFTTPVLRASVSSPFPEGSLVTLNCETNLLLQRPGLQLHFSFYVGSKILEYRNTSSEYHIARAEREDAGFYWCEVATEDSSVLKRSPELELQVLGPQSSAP
Method: as §3

[30] = molecular target: T8, mouse FcγRIIB-his (mouse, UniProt P08101 30-207, limits assumed); assay: ELISA: antibody coated at 1 ug/ml, Mouse FcγRIIB-his titrated, anti-His-HRP; the concentration axis is that of the receptor
T8 sequence (looked up): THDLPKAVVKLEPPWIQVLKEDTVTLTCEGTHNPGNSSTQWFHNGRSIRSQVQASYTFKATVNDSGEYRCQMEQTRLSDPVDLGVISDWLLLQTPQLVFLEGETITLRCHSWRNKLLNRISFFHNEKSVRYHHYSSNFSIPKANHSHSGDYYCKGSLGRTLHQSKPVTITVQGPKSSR
Method: as §3

[31] = molecular target: T9, human FcγRI (human, UniProt P12314 16-288); assay: ELISA: antibody coated at 1 ug/ml, hFcγRI-his titrated, anti-His-HRP; the concentration axis is that of the receptor
T9 construct: also called hFcγRI-his
Method: as §3

[32] = molecular target: T10, Human FcRn (FCGRT&B2M) Protein (human, UniProt P55899 24-297; P61769 21-119); assay: ELISA at pH 6.0: antibody immobilised, biotinylated FcRn titrated, Streptavidin-HRP; the concentration axis is that of FcRn
T10 construct: also called huFcRn-biotin
Method: FcRn binding was evaluated by an ELISA method. […] Biotinylated FcRn was serial diluted in a pH6.0 dilution buffer (1 μg/ml˜0.0002 μg/ml) and then added for 1 h incubation. Next, Streptavidin-HRP and TMB were added for detection of binding at OD450 nm.

[33] = molecular target: T11, human FcγRIIIa-F176 (human, UniProt P08637 17-208); assay: ELISA, antibody coated, His-tagged FcγR in solution
T11 construct: His-tagged (ELISA); also called hFcγRIIIA (F176)-his
Method: as §3

[34] = molecular target: T5, human FcγRIIIa-V176; assay: as above
Method: as §3

T5 sequence (P08637 17-208 F176V limits assumed): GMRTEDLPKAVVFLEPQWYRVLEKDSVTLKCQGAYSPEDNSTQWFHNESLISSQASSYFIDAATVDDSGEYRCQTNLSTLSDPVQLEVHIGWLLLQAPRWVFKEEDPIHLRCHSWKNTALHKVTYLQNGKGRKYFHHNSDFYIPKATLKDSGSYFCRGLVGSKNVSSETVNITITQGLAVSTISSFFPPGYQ
Sequence of human CLDN18.2-mRFP A42S (human) (chain, as listed by the source A42S A42S limits assumed): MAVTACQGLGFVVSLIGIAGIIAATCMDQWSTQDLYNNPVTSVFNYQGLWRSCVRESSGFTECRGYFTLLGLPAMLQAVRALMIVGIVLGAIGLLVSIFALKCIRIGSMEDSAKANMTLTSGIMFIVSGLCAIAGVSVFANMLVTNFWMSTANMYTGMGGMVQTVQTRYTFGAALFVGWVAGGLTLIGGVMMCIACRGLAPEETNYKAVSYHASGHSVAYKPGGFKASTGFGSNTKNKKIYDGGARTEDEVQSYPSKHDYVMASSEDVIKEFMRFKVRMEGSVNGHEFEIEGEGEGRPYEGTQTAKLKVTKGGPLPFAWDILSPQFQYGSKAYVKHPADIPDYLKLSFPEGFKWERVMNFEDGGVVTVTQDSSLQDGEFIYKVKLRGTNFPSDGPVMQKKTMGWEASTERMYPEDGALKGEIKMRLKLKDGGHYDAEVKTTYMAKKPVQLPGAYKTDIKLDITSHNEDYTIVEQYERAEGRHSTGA
Sequence of human CLDN18.2-mRFP G65P (human) (chain, as listed by the source G65P G65P limits assumed): as the sequence (chain, as listed by the source A42S A42S limits assumed) above, with S42A, G65P counted along it
Sequence of human CLDN18.2-mRFP L69I (human) (chain, as listed by the source L69I L69I limits assumed): as the sequence (chain, as listed by the source A42S A42S limits assumed) above, with S42A, L69I counted along it
Sequence of human CLDN18.2-mRFP N45Q (human) (chain, as listed by the source N45Q N45Q limits assumed): as the sequence (chain, as listed by the source A42S A42S limits assumed) above, with S42A, N45Q counted along it
Sequence of human CLDN18.2-mRFP N37D (human) (chain, as listed by the source N37D N37D limits assumed): as the sequence (chain, as listed by the source A42S A42S limits assumed) above, with N37D, S42A counted along it
T10 sequence (P55899 24-297 limits assumed, chain 1 of 2): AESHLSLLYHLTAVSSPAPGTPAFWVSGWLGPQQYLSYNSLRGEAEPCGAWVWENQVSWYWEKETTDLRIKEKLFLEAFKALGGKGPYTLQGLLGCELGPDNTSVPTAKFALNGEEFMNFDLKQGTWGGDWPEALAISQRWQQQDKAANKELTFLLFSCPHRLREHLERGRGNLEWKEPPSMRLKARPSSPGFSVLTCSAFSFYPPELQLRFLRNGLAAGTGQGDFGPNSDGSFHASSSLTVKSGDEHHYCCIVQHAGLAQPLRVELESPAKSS
T10 sequence (P61769 21-119 limits assumed, chain 2 of 2): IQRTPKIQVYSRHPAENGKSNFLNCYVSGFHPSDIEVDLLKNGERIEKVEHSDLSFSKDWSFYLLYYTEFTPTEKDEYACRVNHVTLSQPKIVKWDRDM
Sequence of human CLDN18.2-mRFP Q29M (human) (chain, as listed by the source Q29M Q29M limits assumed): as the sequence (chain, as listed by the source A42S A42S limits assumed) above, with Q29M, S42A counted along it
Sequence of human CLDN18.2-mRFP E56Q (human) (chain, as listed by the source E56Q E56Q limits assumed): as the sequence (chain, as listed by the source A42S A42S limits assumed) above, with S42A, E56Q counted along it
T1 sequence (P56856 whole entry, canonical isoform): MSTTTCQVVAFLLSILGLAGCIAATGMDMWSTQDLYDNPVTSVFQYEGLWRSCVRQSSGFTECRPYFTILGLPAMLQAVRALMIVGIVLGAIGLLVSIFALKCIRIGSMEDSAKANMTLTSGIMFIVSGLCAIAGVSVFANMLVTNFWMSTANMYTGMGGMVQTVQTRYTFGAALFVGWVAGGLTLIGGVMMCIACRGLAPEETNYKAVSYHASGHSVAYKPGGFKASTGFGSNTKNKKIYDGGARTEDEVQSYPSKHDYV
T9 sequence (P12314 16-288 limits assumed): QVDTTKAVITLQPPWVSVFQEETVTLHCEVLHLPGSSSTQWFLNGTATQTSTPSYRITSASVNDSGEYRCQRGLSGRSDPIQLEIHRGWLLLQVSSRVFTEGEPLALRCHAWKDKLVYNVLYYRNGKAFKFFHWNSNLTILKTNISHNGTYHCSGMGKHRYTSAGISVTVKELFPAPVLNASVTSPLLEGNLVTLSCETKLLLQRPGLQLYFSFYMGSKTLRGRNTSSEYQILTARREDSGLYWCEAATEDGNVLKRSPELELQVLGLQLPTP
Sequence of human C1q (P02745 23-245, chain 1 of 3): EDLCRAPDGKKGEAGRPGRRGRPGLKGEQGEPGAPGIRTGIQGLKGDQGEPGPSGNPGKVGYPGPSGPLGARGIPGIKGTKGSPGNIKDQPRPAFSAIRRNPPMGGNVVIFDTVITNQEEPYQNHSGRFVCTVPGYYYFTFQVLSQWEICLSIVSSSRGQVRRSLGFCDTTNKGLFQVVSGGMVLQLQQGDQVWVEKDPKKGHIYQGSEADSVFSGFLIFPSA
Sequence of human C1q (P02746 28-253, chain 2 of 3): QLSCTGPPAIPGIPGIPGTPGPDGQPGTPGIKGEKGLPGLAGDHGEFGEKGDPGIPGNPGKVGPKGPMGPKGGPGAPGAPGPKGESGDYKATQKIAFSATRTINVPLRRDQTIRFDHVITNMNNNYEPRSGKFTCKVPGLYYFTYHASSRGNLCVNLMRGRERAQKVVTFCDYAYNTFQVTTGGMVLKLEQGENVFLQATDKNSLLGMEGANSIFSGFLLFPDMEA
Sequence of human C1q (P02747 29-245, chain 3 of 3): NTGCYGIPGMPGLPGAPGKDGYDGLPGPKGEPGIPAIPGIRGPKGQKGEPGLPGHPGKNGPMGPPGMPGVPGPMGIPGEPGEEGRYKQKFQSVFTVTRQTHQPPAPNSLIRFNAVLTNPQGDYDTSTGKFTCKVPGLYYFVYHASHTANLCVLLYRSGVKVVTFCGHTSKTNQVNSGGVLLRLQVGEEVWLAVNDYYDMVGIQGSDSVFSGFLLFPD
T11 sequence (P08637 17-208 limits assumed): as the sequence (P08637 17-208 F176V limits assumed) above, with V160F counted along it
T4 sequence (Q8SPW2 17-208 limits assumed): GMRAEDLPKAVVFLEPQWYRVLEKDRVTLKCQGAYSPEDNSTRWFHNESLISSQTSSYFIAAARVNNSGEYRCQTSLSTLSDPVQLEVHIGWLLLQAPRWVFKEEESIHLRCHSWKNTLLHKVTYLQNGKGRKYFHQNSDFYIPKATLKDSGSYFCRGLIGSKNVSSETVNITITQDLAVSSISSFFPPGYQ
Sequence of human CLDN18.2-mRFP Q47E (human) (chain, as listed by the source Q47E Q47E limits assumed): as the sequence (chain, as listed by the source A42S A42S limits assumed) above, with S42A, Q47E counted along it

B1: 18B10-C (antibody, human IgG1, V domains shown)
VH: EFQLQQSGPELEKPGASVRISCKTSGYSFTGYNMNWVKQSNGESLEWIGNIDPYYGGTSYNQKFKGKATLTVDKSSSTAYMQLKSLTSEDSAVYYCARMYHGNAFDYWGQGTTLTVSS
VL: DIVMTQSPSSLTVTAGEKVTMSCKSSQSLLNSGNLKNYLTWYQQKPGQPPKLLIYWASTRKSGVPDRFTGSGSGTDFTLTLSSVQAEDLAVYYCQNDYSYPLTFGAGTKLELK
notes: also called chimeric 18B10
For B1, the “ADCC reporter assay (Jurkat-NFAT-luc-FcγRIIIA-V176), MKN45-CLDN18.2-medium target cells” value [1] was 50 fold, the “ADCC reporter assay, NUGC4 target cells” value [1] was over 40 fold and the binding result [2] was “no binding (tested: 10 ug/ml)”. For the same binder, the EC50 [3] was 0.96 µg/mL, the “binding percentage vs wild-type CLDN18.2” value [4] was 69.2% and the “binding percentage vs wild-type CLDN18.2” value [5] was 112%. The “binding percentage vs wild-type CLDN18.2” value [6] was 100%, the “binding percentage vs wild-type CLDN18.2” value [7] was 6.57% and the “binding percentage vs wild-type CLDN18.2” value [8] was 83.5%. For the same binder, the “binding percentage vs wild-type CLDN18.2” value [9] was 92%, the “binding percentage vs wild-type CLDN18.2” value [10] was 109% and the “binding percentage vs wild-type CLDN18.2” value [11] was 118%. The “binding percentage vs wild-type CLDN18.2” value [12] was 106%, the “fold increase in binding potency vs IMAB362” value [13] was about 2 fold and the EC50 [14] was 1.87 µg/mL. The EC50 [15] was 1.35 µg/mL and the EC50 [16] was 7.8 µg/mL.

B2: IMAB362 (antibody, human IgG1, V domains shown)
VH: QVQLQQPGAELVRPGASVKLSCKASGYTFTSYWINWVKQRPGQGLEWIGNIYPSDSYTNYNQKFKDKATLTVDKSSSTAYMQLSSPTSEDSAVYYCTRSWRGNSFDYWGQGTTLTVSS
VL: B1 VL with L35Q, K61E, L81I, L102F, A106S, L112I
notes: chimeric IgG1 benchmark antibody, expressed according to US2009169547A1; also called IMAB362-analog; IMB362
With B2 the EC50 [17] was 18000 µg/mL, the “ADCC EC50 (PBMC effectors, PI staining), NUGC4 cells” value [1] was 0.54 µg/mL and the Kd [18] was 2.58 nM. For the same binder, the EC50 [19] was 0.66 µg/mL, the “binding percentage vs wild-type CLDN18.2” value [6] was 100% and the EC50 [14] was 4.05 µg/mL. The EC50 [20] was 2.47 µg/mL, the EC50 [21] was 0.42 µg/mL and the EC50 [22] was about 16800 µg/mL. It also gave an EC50 [23] of 15300 µg/mL.

B3: 18B10-HaLa-L235V/F243L/R292P/Y300L/P396L (antibody, human IgG1, kappa)
heavy: QVQLVQSGAEVKKPGASVKVSCKASGYTFTGYNMNWVRQAPGQGLEWMGNIDPYYGGTSYNQKFKGRVTMTIDKSTSTVYMELSSLRSEDTAVYYCARMYHGNAFDYWGQGTTVTVSSASTKGPSVFPLAPSSKSTSGGTAALGCLVKDYFPEPVTVSWNSGALTSGVHTFPAVLQSSGLYSLSSVVTVPSSSLGTQTYICNVNHKPSNTKVDKKVEPKSCDKTHTCPPCPAPELVGGPSVFLLPPKPKDTLMISRTPEVTCVVVDVSHEDPEVKFNWYVDGVEVHNAKTKPPEEQYNSTLRVVSVLTVLHQDWLNGKEYKCKVSNKALPAPIEKTISKAKGQPREPQVYTLPPSRDELTKNQVSLTCLVKGFYPSDIAVEWESNGQPENNYKTTPLVLDSDGSFFLYSKLTVDKSRWQQGNVFSCSVMHEALHNHYTQKSLSLSPGK
light: not shown
notes: Fc variant of 18B10-HaLa; also called 18B10-HaLa-VLPYLL; copies: 2 + 2
B3 was tested, and the binding result [24] was “binds”, the “ADCC reporter EC50, NUGC4 targets, Jurkat-NFAT-luc-FcγRIIIA-V176 effectors” value [25] was 0.0097 µg/mL and the “EC50 (read off the curve)” value [26] was about 0.2 µg/mL. For the same binder, the “EC50 (read off the curve)” value [27] was about 0.06 µg/mL, the binding result [28] was “binds” and the binding result [29] was “binds”. B3: binds [30]; binds [31]; binds [32]. For the same binder, the “fold increased binding vs 18B10-HaLa wild-type” value [33] was 10 fold and the “fold increased binding vs 18B10-HaLa wild-type” value [34] was 10 fold.
